Experimental data reported in patent publication US20210130870, “VISUAL AND MODULAR DETECTION OF NUCLEIC ACIDS WITH ENZYME-ASSISTED NANOTECHNOLOGY” (National University of Singapore, published 2021).

Target: Taq DNA polymerase (UniProt P19821 P19821:1-832)
Test: BLI; 50 mM NaCl, 1.5 mM MgCl2, 50 mM Tris-HCl pH 8.5; immobilized biotin-aptamer; sensorgram only
Conditions: tags: GoTaq (Promega); label: biotin on aptamer for BLI; 20 bp duplex with 20 nt inverter overhang, conserved region CAATGTACAGTATTG

Taq DNA polymerase, sequence (P19821 whole entry, one chain of several): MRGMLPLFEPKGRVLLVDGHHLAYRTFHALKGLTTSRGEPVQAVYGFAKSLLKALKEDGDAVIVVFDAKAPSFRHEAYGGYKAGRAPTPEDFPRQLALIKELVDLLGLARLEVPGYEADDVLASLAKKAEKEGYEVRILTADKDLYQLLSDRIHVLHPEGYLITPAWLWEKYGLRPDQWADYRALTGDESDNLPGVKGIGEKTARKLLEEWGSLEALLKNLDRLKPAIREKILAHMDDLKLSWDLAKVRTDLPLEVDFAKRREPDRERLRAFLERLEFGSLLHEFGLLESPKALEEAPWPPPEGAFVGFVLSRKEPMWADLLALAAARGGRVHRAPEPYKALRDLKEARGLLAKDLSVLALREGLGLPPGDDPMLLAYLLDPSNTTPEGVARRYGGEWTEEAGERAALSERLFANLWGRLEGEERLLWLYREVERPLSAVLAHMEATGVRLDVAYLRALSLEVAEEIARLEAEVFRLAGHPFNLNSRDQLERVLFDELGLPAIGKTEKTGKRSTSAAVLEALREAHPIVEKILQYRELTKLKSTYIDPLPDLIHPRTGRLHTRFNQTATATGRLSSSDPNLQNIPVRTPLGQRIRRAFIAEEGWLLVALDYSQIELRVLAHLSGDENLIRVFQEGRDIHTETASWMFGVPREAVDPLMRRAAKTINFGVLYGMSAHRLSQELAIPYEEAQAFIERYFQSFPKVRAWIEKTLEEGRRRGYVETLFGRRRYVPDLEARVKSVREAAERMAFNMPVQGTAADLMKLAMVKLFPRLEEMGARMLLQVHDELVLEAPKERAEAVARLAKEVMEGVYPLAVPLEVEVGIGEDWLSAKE

B1: HPV16 L2 aptamer/inverter recognition nanostructure (structured_DNA)
DNA 1: AAGTATCTGTAATAAAGTCACAATGTACAGTATTG
DNA 2: TGACTTTATTACAGATACTTCTACAACCCCGGTACCATCT
B1: binds.
